Results taken from the supplement of paper PMC6757056.
± gives the standard deviation of the averaged measurements.

B1: library; a variant is named by its letters at N, in order (parent)
chain: GCUGUCACCGGUGUAUUACCCUAGUGGUCGACCGGUCUGAUGAGUCUNNNNNNAGACGAAACAGC

Experiments:
hypoxanthine [1] = variants of: B1; assay: FACS-Seq fitted mean relative fluorescence mCherry/BFP without ligand (log10 relative fluorescence); ligand: hypoxanthine (xanthine aptamer); higher = higher reporter protein expression; conditions: HEK293T, ligand present: no
Summary of the method: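 HEK293T libraries were lentivirally transduced with an mCherry reporter carrying the ribozyme switch and an EF1α-BFP marker, enriched, and incubated for 48 h with or without ligand before sorting into 6 bins by mCherry/BFP. Genomic DNA from each bin was PCR-amplified, barcoded and sequenced on MiSeq. Fluorescence is the fitted normal mean of the bin counts. The fit used log10(mCherry/BFP), and means were scaled to five spiked-in control ribozymes.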

hypoxanthine [2] = variants of: B1; assay: normalized RNA/DNA level with ligand (relative to sTRSVctl = 100) (log10 (% of sTRSVctl)); ligand: hypoxanthine (xanthine aptamer); higher = less ribozyme self-cleavage, higher mRNA level; conditions: ligand concentration (+) RNA-Seq: 5 mM, HEK293T, reporter: mCherry (pCS4076), ligand present: yes
Protocol: (§1)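 Hammerhead (sTRSV) ribozyme switch libraries with a ligand aptamer grafted on stem I and a randomized N4-6 loop II, cloned into the 3' UTR of mCherry and transiently transfected into HEK293T cells; RNA-Seq 72 h post transfection with ligand added 1 h before transfection; RNA read count / plasmid DNA read count normalized to the non-cleaving sTRSVctl (x100), log10; sequences with >100 DNA reads. FACS-Seq: lentiviral library sorted into 6 bins after 48 h ligand, log-normal fit mean of mCherry/BFP scaled to controls. Printed sequences are partial switch sequences.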

hypoxanthine [3] = variants of: B1; assay: normalized RNA/DNA level without ligand (relative to sTRSVctl = 100) (log10 (% of sTRSVctl)); ligand: hypoxanthine (xanthine aptamer); higher = less ribozyme self-cleavage, higher mRNA level; conditions: HEK293T, reporter: mCherry (pCS4076), ligand present: no
Protocol: as §1

hypoxanthine [4] = variants of: B1; assay: FACS-Seq fitted mean relative fluorescence mCherry/BFP with ligand (log10 relative fluorescence); ligand: hypoxanthine (xanthine aptamer); ligand concentration (+) FACS-Seq: 5 mM; higher = higher reporter protein expression; conditions: HEK293T, ligand present: yes
Protocol: as §1

Variant	FACS-Seq fitted mean (log10) (hypoxanthine [1])	normalized RNA/DNA level with ligand (log10) (hypoxanthine [2])	normalized RNA/DNA level without ligand (log10) (hypoxanthine [3])	FACS-Seq fitted mean (log10) (hypoxanthine [4])
ACAGCG	0.12 ± 0.062	1.92 ± 0.028	1.67 ± 0.0018	0.456 ± 0.065
AGGUAU	0.648 ± 0.15	1.871 ± 0.013	1.69 ± 0.03	0.665 ± 0.12
AGCGUC	0.8 ± 0.033	1.971 ± 0.0074	1.966 ± 0.01	0.743 ± 0.075
GGAUUG	0.023 ± 0.012	1.857 ± 0.017	1.42 ± 0.059	0.4602 ± 0.0025
UCAGCG	0.383 ± 0.009	1.94 ± 0.067	1.8203 ± 0.0012	0.656 ± 0.083
UCAACA	0.101 ± 0.027	1.959 ± 0.018	1.84 ± 0.024	0.297 ± 0.054
AGACAA	0.177 ± 0.019	1.89 ± 0.049	1.74 ± 0.053	0.0293 ± 0.022
GUGUCG	0.585 ± 0.017	1.86 ± 0.034	1.604 ± 0.0026	0.628 ± 0.037
UCACCG	0.705 ± 0.011	1.94 ± 0.027	1.7 ± 0.025	0.592 ± 0.045
GCUGUG	0.345 ± 0.079	1.93 ± 0.025	1.76 ± 0.022	0.539 ± 0.081
UCUAAU	0.308 ± 0.028	1.92 ± 0.022	1.79 ± 0.039	0.511 ± 0.032
UAACUA	0.0691 ± 0.014	1.921 ± 0.0071	1.879 ± 0.0092	-0.0104 ± 0.0014
UCUGGA	0.147 ± 0.0055	1.85 ± 0.043	1.6 ± 0.031	0.462 ± 0.029
CACGUA	0.4515 ± 0.0024	1.9 ± 0.016	1.784 ± 0.0067	0.594 ± 0.022
CAGUGA	0.406 ± 0.012	1.89 ± 0.076	1.71 ± 0.057	0.487 ± 0.032
CACCGA	0.374 ± 0.048	1.94 ± 0.0088	1.8 ± 0.038	0.516 ± 0.011
AGCCAG	0.512 ± 0.025	1.89 ± 0.024	1.591 ± 0.007	0.71 ± 0.041
AGCCAA	0.57 ± 0.1	1.888 ± 0.017	1.8 ± 0.028	0.566 ± 0.067
GCCUAG	0.303 ± 0.03	1.89 ± 0.097	1.5 ± 0.12	0.678 ± 0.037
GAAAGA	0.507 ± 0.093	1.92 ± 0.029	1.71 ± 0.033	0.581 ± 0.065
AACGUA	0.494 ± 0.032	1.86 ± 0.058	1.702 ± 0.0047	0.516 ± 0.1
AACGUG	0.285 ± 0.021	1.817 ± 0.013	1.3 ± 0.041	0.737 ± 0.012
UAUCAC	0.6449 ± 0.00099	1.909 ± 0.012	1.86 ± 0.04	0.584 ± 0.023
GAACAC	0.66 ± 0.029	1.95 ± 0.029	1.74 ± 0.024	0.622 ± 0.049

Variant	FACS-Seq fitted mean (log10) (hypoxanthine [1])	normalized RNA/DNA level with ligand (log10) (hypoxanthine [2])	normalized RNA/DNA level without ligand (log10) (hypoxanthine [3])	FACS-Seq fitted mean (log10) (hypoxanthine [4])
AAGAGU	0.323 ± 0.065	1.81 ± 0.025	1.4 ± 0.047	0.664 ± 0.051
AGUGUG	0.0689 ± 0.056	1.8 ± 0.038	1.32 ± 0.038	0.489 ± 0.033
GCGGCG	-0.49 ± 0.037	1.93 ± 0.045	1.514 ± 0.012	-0.0806 ± 0.025
UUUUGA	0.455 ± 0.043	1.98 ± 0.031	1.63 ± 0.023	0.5 ± 0.019
AAAACG	0.284 ± 0.015	1.85 ± 0.053	1.43 ± 0.017	0.616 ± 0.077
UCUCUG	0.0437 ± 0.023	1.77 ± 0.022	1.3 ± 0.032	0.522 ± 0.028
AAUGUG	0.203 ± 0.0069	1.82 ± 0.026	1.39 ± 0.05	0.573 ± 0.036
CGUACC	0.313 ± 0.054	1.98 ± 0.065	1.89 ± 0.021	0.536 ± 0.047
GUACCG	0.26 ± 0.029	1.903 ± 0.0046	1.624 ± 0.0025	0.511 ± 0.015
ACCUAC	0.113 ± 0.032	1.92 ± 0.035	1.85 ± 0.05	0.264 ± 0.013
UGAUCG	0.52543 ± 0.00029	1.93 ± 0.02	1.81 ± 0.025	0.589 ± 0.045
AGCUCG	0.177 ± 0.0048	1.931 ± 0.0082	1.63 ± 0.11	0.448 ± 0.0069
AGUAGU	0.38 ± 0.09	1.831 ± 0.016	1.45 ± 0.07	0.577 ± 0.036
AUCUGG	0.338 ± 0.0078	1.84 ± 0.023	1.426 ± 0.0099	0.609 ± 0.05
CCCGCA	-0.714 ± 0.04	1.94 ± 0.028	1.91 ± 0.022	-0.0625 ± 0.038
GACCAA	0.126 ± 0.012	1.9242 ± 0.00022	1.81 ± 0.019	0.21 ± 0.049
GACCAG	0.136 ± 0.033	1.865 ± 0.0019	1.55 ± 0.073	0.531 ± 0.013
CUCGGU	-0.663 ± 0.081	1.94 ± 0.022	1.85 ± 0.041	-0.785 ± 0.082
GGCAGC	0.306 ± 0.06	1.921 ± 0.012	1.603 ± 0.0027	0.651 ± 0.043
CAGGGG	0.166 ± 0.0056	1.75 ± 0.036	1.23 ± 0.06	0.48135 ± 0.00032
GUCGGG	0.355 ± 0.068	1.882 ± 0.0031	1.58 ± 0.12	-0.0447 ± 0.038
GUCGGC	0.485 ± 0.026	1.91 ± 0.025	1.68 ± 0.042	0.81 ± 0.023
GUCUAG	0.584 ± 0.051	1.87 ± 0.053	1.53 ± 0.044	0.604 ± 0.11
GGGAGA	0.0269 ± 0.057	1.84 ± 0.02	1.429 ± 0.014	0.516 ± 0.024

Variant	FACS-Seq fitted mean (log10) (hypoxanthine [1])	normalized RNA/DNA level with ligand (log10) (hypoxanthine [2])	normalized RNA/DNA level without ligand (log10) (hypoxanthine [3])	FACS-Seq fitted mean (log10) (hypoxanthine [4])
GGGAGC	-0.04041 ± 0.0004	1.74 ± 0.068	1.16 ± 0.014	0.622 ± 0.026
UGUUUG	-0.153 ± 0.036	2.04 ± 0.037	1.93 ± 0.035	0.0349 ± 0.0062
UUGCUU	0.227 ± 0.004	1.98 ± 0.042	1.94 ± 0.044	0.0746 ± 0.042
ACAUGA	0.3098 ± 0.0019	1.91 ± 0.019	1.66 ± 0.026	0.509 ± 0.021
GUGAGA	-0.285 ± 0.036	1.86 ± 0.025	1.5664 ± 0.0011	-0.146 ± 0.2
CAAAUA	0.317 ± 0.014	1.9 ± 0.06	1.7391 ± 0.00044	0.196 ± 0.037
CGAAAA	0.531 ± 0.032	1.89 ± 0.062	1.6917 ± 0.00075	0.67 ± 0.045
AUGGUA	0.303 ± 0.033	1.86 ± 0.045	1.73 ± 0.048	0.304 ± 0.016
UUCCUG	-0.284 ± 0.019	1.93 ± 0.041	1.756 ± 0.0019	-0.379 ± 0.12
UGUGCG	-0.404 ± 0.074	1.933 ± 0.015	1.684 ± 0.014	0.178 ± 0.0062
ACGAGG	-0.105 ± 0.022	1.412 ± 0.013	1.04 ± 0.14	0.777 ± 0.034
ACUCGA	0.714 ± 0.029	1.958 ± 0.017	1.74 ± 0.043	0.665 ± 0.029
CUACUA	0.522 ± 0.16	1.9 ± 0.046	1.78 ± 0.02	0.51 ± 0.059
AUGGAG	0.0698 ± 0.0056	1.71 ± 0.037	1.208 ± 0.011	0.604 ± 0.023
UAUAAG	0.0362 ± 0.033	1.87 ± 0.034	1.611 ± 0.015	0.291 ± 0.019
AUGUAG	-0.0834 ± 0.023	1.768 ± 0.0076	1.27 ± 0.1	0.176 ± 0.087
UACAUG	-0.317 ± 0.071	1.93 ± 0.029	1.69 ± 0.018	0.0659 ± 0.069
GGUAAC	0.447 ± 0.063	1.96 ± 0.067	1.82 ± 0.031	0.455 ± 0.018
AUGCAA	0.192 ± 0.045	1.87 ± 0.022	1.72 ± 0.038	0.221 ± 0.068
AAGUAC	0.425 ± 0.075	1.89 ± 0.065	1.647 ± 0.015	0.673 ± 0.064
AAACGU	0.362 ± 0.036	1.877 ± 0.0019	1.63 ± 0.043	0.519 ± 0.03
GUGAUG	0.204 ± 0.049	1.81 ± 0.038	1.34 ± 0.019	0.686 ± 0.037
AGACGA	0.525 ± 0.066	1.95 ± 0.049	1.62 ± 0.025	0.546 ± 0.049
GUGCGG	0.103 ± 0.016	1.88 ± 0.033	1.38 ± 0.081	0.585 ± 0.033
